Experimental data taken from patent US20130164281A1 (SAMSUNG ELECTRONICS, published 2013).
Residue numbers refer to the chain shown, from its start.

B1: chimeric antibody chAbF46 (antibody, V domains shown)
VH: EVKLVESGGGLVQPGGSLRLSCATSGFTFTDYYMSWVRQPPGKALEWLGFIRNKANGYTTEYSASVKGRFTISRDNSQSILYLQMDTLRAEDSATYYCARDNWFAYWGQGTLVTVSA
VL: DILMTQSPSSLTVSAGEKVTMSCKSSQSLLASGNQNNYLAWHQQKPGRSPKMLIIWASTRVSGVPDRFIGSGSGTDFTLTINSVQAEDLAVYYCQQSYSAPLTFGAGTKLELKR
B2: deimmunized humanized antibody huAbF46 including a combination of AT-VH3 and AT-Vk2 (antibody, IgG1, V domains shown)
VH: B1 VH with K3Q, A44G, Q78K, I80T, D86N, T87S, S93T, A117S
VL: DILMTQSPSSLSASVGDRVTITCKSSQSLLASGNQNNYLAWHQQKPGKAPKMLIIWASTRVSGVPDRFIGSGSGTDFTLTISSLQAEDVAVYYCQQSYSAPLTFGQGTKLEIK
notes: expressed from pANTVhG1 and pANTVk vectors (IgG1, kappa) in HEK293 cells; also called AT-VH3/AT-Vk2
B3: deimmunized humanized antibody huAbF46 including a combination of AT-VH2 and AT-Vk2 (antibody, IgG1, V domains shown)
VH: B1 VH with A44G, Q78K, I80T, D86N, T87S, S93T, A117S
VL: B2 VL
notes: expressed from pANTVhG1 and pANTVk vectors (IgG1, kappa) in HEK293 cells; also called AT-VH2/AT-Vk2
B4: deimmunized humanized antibody huAbF46 including a combination of AT-VH3 and AT-Vk1 (antibody, IgG1, V domains shown)
VH: B1 VH with K3Q, A44G, Q78K, I80T, D86N, T87S, S93T, A117S
VL: B2 VL with S12T, I21M
notes: expressed from pANTVhG1 and pANTVk vectors (IgG1, kappa) in HEK293 cells; also called AT-VH3/AT-Vk1
B5: deimmunized humanized antibody huAbF46 including a combination of AT-VH5 and AT-Vk3 (antibody, IgG1, V domains shown)
VH: B1 VH with K3Q, A44G, Q78K, S79N, I80T, D86N, T87S, S93T, T95V, A117S
VL: B2 VL with L3Q
notes: expressed from pANTVhG1 and pANTVk vectors (IgG1, kappa) in HEK293 cells; also called AT-VH5/AT-Vk3
B6: deimmunized humanized antibody huAbF46 including a combination of AT-VH1 and AT-Vk3 (antibody, IgG1, V domains shown)
VH: B1 VH with A44G, Q78K, I80T, D86N, T87S, A117S
VL: B2 VL with L3Q
notes: expressed from pANTVhG1 and pANTVk vectors (IgG1, kappa) in HEK293 cells; also called AT-VH1/AT-Vk3
B7: deimmunized humanized antibody huAbF46 including a combination of AT-VH5 and AT-Vk1 (antibody, IgG1, V domains shown)
VH: B1 VH with K3Q, A44G, Q78K, S79N, I80T, D86N, T87S, S93T, T95V, A117S
VL: B2 VL with S12T, I21M
notes: expressed from pANTVhG1 and pANTVk vectors (IgG1, kappa) in HEK293 cells; also called AT-VH5/AT-Vk1
B8: deimmunized humanized antibody huAbF46 including a combination of AT-VH3 and AT-Vk4 (antibody, IgG1, V domains shown)
VH: B1 VH with K3Q, A44G, Q78K, I80T, D86N, T87S, S93T, A117S
VL: B2 VL with L3Q, I69S
notes: expressed from pANTVhG1 and pANTVk vectors (IgG1, kappa) in HEK293 cells; also called AT-VH3/AT-Vk4
B9: deimmunized humanized antibody huAbF46 including a combination of AT-VH2 and AT-Vk1 (antibody, IgG1, V domains shown)
VH: B1 VH with A44G, Q78K, I80T, D86N, T87S, S93T, A117S
VL: B2 VL with S12T, I21M
notes: expressed from pANTVhG1 and pANTVk vectors (IgG1, kappa) in HEK293 cells; also called AT-VH2/AT-Vk1
B10: deimmunized humanized antibody huAbF46 including a combination of AT-VH5 and AT-Vk4 (antibody, IgG1, V domains shown)
VH: B1 VH with K3Q, A44G, Q78K, S79N, I80T, D86N, T87S, S93T, T95V, A117S
VL: B2 VL with L3Q, I69S
notes: expressed from pANTVhG1 and pANTVk vectors (IgG1, kappa) in HEK293 cells; also called AT-VH5/AT-Vk4
B11: deimmunized humanized antibody huAbF46 including a combination of AT-VH4 and AT-Vk2 (antibody, IgG1, V domains shown)
VH: B1 VH with K3Q, A44G, Q78K, S79N, I80T, D86N, T87S, S93T, A117S
VL: B2 VL
notes: expressed from pANTVhG1 and pANTVk vectors (IgG1, kappa) in HEK293 cells; also called AT-VH4/AT-Vk2
B12: deimmunized humanized antibody huAbF46 including a combination of AT-VH1 and AT-Vk4 (antibody, IgG1, V domains shown)
VH: B1 VH with A44G, Q78K, I80T, D86N, T87S, A117S
VL: B2 VL with L3Q, I69S
notes: expressed from pANTVhG1 and pANTVk vectors (IgG1, kappa) in HEK293 cells; also called AT-VH1/AT-Vk4
B13: deimmunized humanized antibody huAbF46 including a combination of AT-VH1 and AT-Vk2 (antibody, IgG1, V domains shown)
VH: B1 VH with A44G, Q78K, I80T, D86N, T87S, A117S
VL: B2 VL
notes: expressed from pANTVhG1 and pANTVk vectors (IgG1, kappa) in HEK293 cells; also called AT-VH1/AT-Vk2
B14: deimmunized humanized antibody huAbF46 including a combination of AT-VH1 and AT-Vk1 (antibody, IgG1, V domains shown)
VH: B1 VH with A44G, Q78K, I80T, D86N, T87S, A117S
VL: B2 VL with S12T, I21M
notes: expressed from pANTVhG1 and pANTVk vectors (IgG1, kappa) in HEK293 cells; also called AT-VH1/AT-Vk1
B15: deimmunized humanized antibody huAbF46 including a combination of AT-VH2 and AT-Vk4 (antibody, IgG1, V domains shown)
VH: B1 VH with A44G, Q78K, I80T, D86N, T87S, S93T, A117S
VL: B2 VL with L3Q, I69S
notes: expressed from pANTVhG1 and pANTVk vectors (IgG1, kappa) in HEK293 cells; also called AT-VH2/AT-Vk4
B16: deimmunized humanized antibody huAbF46 including a combination of AT-VH2 and AT-Vk3 (antibody, IgG1, V domains shown)
VH: B1 VH with A44G, Q78K, I80T, D86N, T87S, S93T, A117S
VL: B2 VL with L3Q
notes: expressed from pANTVhG1 and pANTVk vectors (IgG1, kappa) in HEK293 cells; also called AT-VH2/AT-Vk3
B17: deimmunized humanized antibody huAbF46 including a combination of AT-VH4 and AT-Vk4 (antibody, IgG1, V domains shown)
VH: B1 VH with K3Q, A44G, Q78K, S79N, I80T, D86N, T87S, S93T, A117S
VL: B2 VL with L3Q, I69S
notes: expressed from pANTVhG1 and pANTVk vectors (IgG1, kappa) in HEK293 cells; also called AT-VH4/AT-Vk4
B18: deimmunized humanized antibody huAbF46 including a combination of AT-VH4 and AT-Vk1 (antibody, IgG1, V domains shown)
VH: B1 VH with K3Q, A44G, Q78K, S79N, I80T, D86N, T87S, S93T, A117S
VL: B2 VL with S12T, I21M
notes: expressed from pANTVhG1 and pANTVk vectors (IgG1, kappa) in HEK293 cells; also called AT-VH4/AT-Vk1
B19: deimmunized humanized antibody huAbF46 including a combination of AT-VH4 and AT-Vk3 (antibody, IgG1, V domains shown)
VH: B1 VH with K3Q, A44G, Q78K, S79N, I80T, D86N, T87S, S93T, A117S
VL: B2 VL with L3Q
notes: expressed from pANTVhG1 and pANTVk vectors (IgG1, kappa) in HEK293 cells; also called AT-VH4/AT-Vk3
B20: deimmunized humanized antibody huAbF46 including a combination of AT-VH3 and AT-Vk3 (antibody, IgG1, V domains shown)
VH: B1 VH with K3Q, A44G, Q78K, I80T, D86N, T87S, S93T, A117S
VL: B2 VL with L3Q
notes: expressed from pANTVhG1 and pANTVk vectors (IgG1, kappa) in HEK293 cells; also called AT-VH3/AT-Vk3
B21: deimmunized humanized antibody huAbF46 including a combination of AT-VH5 and AT-Vk2 (antibody, IgG1, V domains shown)
VH: B1 VH with K3Q, A44G, Q78K, S79N, I80T, D86N, T87S, S93T, T95V, A117S
VL: B2 VL
notes: expressed from pANTVhG1 and pANTVk vectors (IgG1, kappa) in HEK293 cells; also called AT-VH5/AT-Vk2

Molecular target: T1, human c-Met protein antigen (human, UniProt P08581 25-932, limits assumed)
T1 construct: also called c-Met antigen
T1 sequence (P08581 25-932 limits assumed): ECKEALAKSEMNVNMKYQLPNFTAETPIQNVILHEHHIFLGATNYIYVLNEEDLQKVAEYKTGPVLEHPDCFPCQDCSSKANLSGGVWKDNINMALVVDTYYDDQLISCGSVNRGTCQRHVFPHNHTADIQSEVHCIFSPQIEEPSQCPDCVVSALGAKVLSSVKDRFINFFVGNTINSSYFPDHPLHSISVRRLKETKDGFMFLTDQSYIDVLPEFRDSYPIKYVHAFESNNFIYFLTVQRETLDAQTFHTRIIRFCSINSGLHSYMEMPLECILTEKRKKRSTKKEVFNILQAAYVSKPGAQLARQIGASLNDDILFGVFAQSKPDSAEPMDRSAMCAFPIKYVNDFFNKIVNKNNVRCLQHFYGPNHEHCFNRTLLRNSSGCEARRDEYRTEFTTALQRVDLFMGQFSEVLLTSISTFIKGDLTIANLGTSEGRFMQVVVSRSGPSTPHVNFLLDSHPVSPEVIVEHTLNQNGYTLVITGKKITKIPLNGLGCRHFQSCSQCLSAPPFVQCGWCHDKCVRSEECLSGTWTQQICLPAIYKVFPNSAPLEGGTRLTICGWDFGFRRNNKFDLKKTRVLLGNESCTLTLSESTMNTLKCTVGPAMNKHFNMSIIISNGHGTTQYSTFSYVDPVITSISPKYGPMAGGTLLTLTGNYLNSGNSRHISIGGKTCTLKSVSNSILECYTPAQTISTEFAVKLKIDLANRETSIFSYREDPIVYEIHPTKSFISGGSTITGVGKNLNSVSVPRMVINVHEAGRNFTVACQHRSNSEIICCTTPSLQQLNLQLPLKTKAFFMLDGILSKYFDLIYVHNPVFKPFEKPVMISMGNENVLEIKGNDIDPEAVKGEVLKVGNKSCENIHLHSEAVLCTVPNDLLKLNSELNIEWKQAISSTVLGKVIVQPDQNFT
Test: Biacore SPR, antibody immobilized on CM5 chip, human c-Met protein injected

Q: B1 was tested. Which Kd did it give?
A: 4.27 nM

Molecular target: T2, human c-Met/Fc fusion protein (R&D Systems) (human, UniProt P08581 25-932)
T2 construct: Bought reagent; also called c-Met/Fc chimera (R&D Systems Cat. No. 358-MT/CF); not shown: Fc part of the bought fusion
T2 sequence (P08581 25-932 limits assumed): as above
Test: competition ELISA on coated c-Met/Fc; competitor biotinylated chAbF46 (0.1 ug/ml)
Protocol: The antigens were coated by overnight incubation at a temperature of 4° C. using Nunc Immuno MaxiSort 96 well flat bottom microtiter plate (Fisher Cat. No. DIS-971-030J) and 1.0 μg/ml and 100 μl/well of c-Met/Fc chimera (R&D Systems Cat. No. 358-MT/CF). chAbF46 and 20 humanized antibodies were diluted and at a concentration of 10 μg/ml to 0.078 μg/ml, they were mixed with biotinylated chAbF46 (0.1 μg/ml, final conc.), followed by incubation at a temperature of 37° C. for 2 hours. The amount of biotinylated chAbF46 antibody binding to the antigen was measured using streptavidin-HRP (Sigma cat. No S5512) and an OPD substrate (Sigma Cat. No. P9187), and IC50 data were calculated from the results and the data are shown in Table 1 below (all units in nM).

Q: With B2 as the binder, how does the IC50 read?
A: 4.5 nM

Q: With B3 as the binder, how does the IC50 read?
A: 1.28 nM

Q: B4 was tested. Which IC50 did it give?
A: 3.53 nM

Q: How did the IC50 turn out when B5 was run?
A: 1.57 nM

Q: With B6 as the binder, how does the IC50 read?
A: 2.3 nM

Q: B7 was tested. Which IC50 did it give?
A: 2.04 nM

Q: For B8, which IC50 is on record?
A: 1.81 nM

Q: Which IC50 does the source give for B9 here?
A: 2.3 nM

Q: Which IC50 does the source give for B10 here?
A: 1.62 nM

Q: B11 was tested. Which IC50 did it give?
A: 3.13 nM

Q: With B12 as the binder, how does the IC50 read?
A: 1.51 nM

Q: With B13 as the binder, how does the IC50 read?
A: 1.49 nM

Q: With B14 as the binder, how does the IC50 read?
A: 1.48 nM

Q: How did the IC50 turn out when B15 was run?
A: 1.37 nM

Q: For B16, which IC50 is on record?
A: 1.69 nM

Q: B17 was tested. Which IC50 did it give?
A: 1.41 nM

Q: For B18, which IC50 is on record?
A: 2.4 nM

Q: For B19, which IC50 is on record?
A: 1.99 nM

Q: B20 was tested. Which IC50 did it give?
A: 5.51 nM

Q: For B21, which IC50 is on record?
A: 1.46 nM
